# Assay results taken from US20240270826A1 (NATIONAL RESEARCH COUNCIL OF CANADA, published 2024).
# B1: NRCoV2-20 VHH (VHH)
# VHH: EVQLQQSGGGLVQPGGSLRLSCAASGRTFSNYVVGWFRQAPQAPGKDHEFVAVISGSDTETYYADSVKGRFTISRDNAKNTVYLQMNSLKPEDTAVYYCAADRGMSYYYTRATEYYYWGQGTQVTVSS
# B2: NRCoV2-10 VHH (VHH)
# VHH: QLQLQESGGGLVQPGGSLTLSCAASGNTFSRSNMHWYRQAPGAQREWVAAISSRGISTYAYSAKGRFTISRDNAKNTVSLQMNSLKPEDTAVYYCYAADDLGDYWGQGTQVTVSS
# B3: NRCoV2-SR16 VHH (VHH)
# VHH: QVQLVQSAGGLVQAGGSLRLSCVVSGTTFSRYHMGWHRQAPGKQRDFVAGISTSGAVTYADSAKGRFTISRDNAKNTVYLEMNSLKLEDTALYYCNTGGWDYRSSTFIMGLNWGQGTQVTVSS
# B4: NRCoV2-18 VHH (VHH)
# VHH: EVQLVESGGGLVQAGGSLRLSCVASGITISGYNMAWWRQTRGKQTERVAFINSGGSTTYSDSVKGRFTISRDNGKNTAYLQMNSLNAEDTADYFCSLHTSHDYWGQGTQVTVSS
# B5: NRCoV2-18 VHH (VHH)
# VHH: EVQLVESGGGLVQAGGSLRLSCVASGITISGYNMAWWRQTRGKQTERVAFINSGGSTTYSDSVKGRFTISRDNGKNTAYLQMNSLNAEDTADYFCSLHTSHDYWGQGTQVTVSS
# B6: NRCoV2-02 VHH (VHH)
# VHH: EVQLVESGGGLVQAGGSLRLSCAASGFTFSNYAMNWVRQAPGKGLEWVSGISGRGDDTRYADSVKGRFTISRDNAKNTLFLQMRSLRPEDTGVYRCTKGPDLYYFGSGYSDRGQGTQVTVSS
# B7: NRCoV2-S2F3 VHH (VHH)
# VHH: EVQLVQSGGGLVQAGGSLRLSCATSVRILSVPAMGWYRQAPGKEREMVAVITSGGSTNYADSVKGRFTISRDNAKNTVYLQMNSLKLEDTAVYQCNLRDILSQPFWGQGTQVTVSS
# B8: NRCoV2-14 VHH (VHH)
# VHH: EVQLVSSGGGLVQAGGSLRLSCEASGTTFSHYAVGWYRQAPGKQREWVASISVFGSTTYGGSVAGRFTISRDNDKNTVDLQMNSLKPEDTAVYYCHAVNADIGGDYWGQGTQVTVSS
# B9: NRCoV2-MRed05 VHH (VHH)
# VHH: EVQLVESGGGLVQPGGSLRLSCAASGFTLDYYAIGWFRQAPGKEREGVSCISSSDGSTLYADSVKGRFTISRDNAKNTVYLQMNSLKPEDTAVYYCATGPQAYYSGSYYFQCPQAGMDYWGKGTQVTVSS
# B10: NRCoV2-SR04 VHH (VHH)
# VHH: QVQLVESGGGLVQAGGSLRLSCAASGRTFSSHTVGWYRQAPGKQRDLVAAISMGGNTNYADYADSVKGRFTISRDNAKNTLYLQMNSLKPEDTAVYYCNTAALVGNRLLPMATITWGQGTQVTVSS
# B11: NRCoV2-03 VHH (VHH)
# VHH: EVQLVSSGGGLVQAGGSLRLSCTASGITFSYYAMGWYRQAPGQPRELVASMSNMDSTIYADSVKGRFTISRDNAKTTIYLQMNNLKPEDTAVYFCNIYGPTYSTRRNEYWGQGTQVTVSS
# B12: NRCoV2-MRed04 VHH (VHH)
# VHH: EVQLVESGGGLVQPGRSLRLSCAASGNSFSISTMGWFRQAPGKERELVASIWSDTTTSYADSVKGRFTISTDNTRTKVYLQMSSLNPEDTAVYYCAADRGFVVRGQYDYWGQGTQVTVSS
# B13: NRCoV2-05 VHH (VHH)
# VHH: EVKLVQSGGGLVQPGGSLRLSCAASGFIFSNYAMNWVRQAPGKGLEWVSGINSGGGDTRYADSVKGRFTVSRDNAKNTLYLQMNSLKPEDTGVYYCSKGPVSSYYGSGYDYRGQGTQVTVSS
# B14: NRCoV2-SR01 VHH (VHH)
# VHH: EVQLVQSGGGSVQAGGSLRLSCVASGFTFDNYAIGWFRQAPGKEREGVSCISGNGGVTIYADSVKGRFTISRDNAKNLVYLQMNSLKPEDTAVYYCAATGIRSTWSVYGCSRLAGPYDYWGQGTQVTVSS
# B15: NRCoV2-SR02 VHH (VHH)
# VHH: EVQLVDSGGGLVQAGGSLRLSCTASEFTLNYYSIGWFRQSPGKEREGVSCIRYSGGGIDYADSVKGRFTISRDNAKNTVYLTMNSLKPEDTAVYYCAADRLYSRACPTAGGRNYWGQGTQVTVSS
# B16: NRCoV2-S2G4 VHH (VHH)
# VHH: QVQLVQSGGGLVQAGGSLTLSCAPSGSTFSGYATNWYRQAPGKQRELVATISSDGDKNYADSVKGRFTISRDNAKNTVYLQMNSLKPEDTAVYYCNKHWWTGDWWGQGTQVTVSS
# B17: NRCoV2-SR03 VHH (VHH)
# VHH: AVQLVDSGGGLVQAGGSLRLSCAASGSIFSNNHMGWYRQAPGKQRELVAAISSGGKTNYADFAKGRFTISRDNAKNMVYLQMNSLKPEDTAVYYCNRGGWEYRSSYYIMGPHWGQGTQVTVSS
# B18: NRCoV2-SR13 VHH (VHH)
# VHH: EVQLVESGGGLVTTGGSLRLSCATSGSRFGSKHMAWYRQAPGKQRDLVAAISSGGSTHYGSSVKGRFTISRDNAKSTVYLQMNSLNPEDTAVFYCNMGGWDYRSNTYIPGSRSDYWGQGTQVTVSS
# B19: NRCoV2-1d VHH (VHH)
# VHH: EVQLVESGGGSVQPGGSLRLSCAASGSTLDYYAIGWFRQAPGKEREWVSSVSSSDGNTLYADSVKGRFTISRDNAKNTVYLQMNSLKAEDTAVYVCAADYSMRPFAVGRWHRDYEYWGQGTQVTVSS
# B20: NRCoV2-S2G3 VHH (VHH)
# VHH: QVQLVQSGGGSVQAGGSLRLSCAASGSTFGIFLMGWRRQAPGKQRELVAHITSGGATNYADSVKGRFTISRDNAKNTVYLQMNSLEPEDTAVYYCYTTKRDDASVYWGQGTQVTVSS
# B21: NRCoV2-15 VHH (VHH)
# VHH: EVQLVSSGGGLVEAGGSLRLSCIASGSTSGRNTMGWFRQAPGKQREWVAIVSTSGATNYAGSVKGRFTLSRDNAKNAVYLQMNNLKPEDTAVYYCYAAYGGGGDYWGQGTQVTVSS
# B22: NRCoV2-S2A4 VHH (VHH)
# VHH: QVQLVQSGGGLVQAGGSLRLSCAVSGSPFRSNVMEWYRQAPGKQRELVASISTGGSRTYTDSVKGRFTISRDNAKNEAFLQMNSLKPEDTAVYYCHAAARDSHGIYLLDTWGQGTQVTVSS
# Key:
# [1] = target: T1, SARS-CoV-2 spike trimer S (Wuhan, SmT1) (SARS-CoV-2 Wuhan); experiment: SPR, antigen on chip
# T1 construct: extracellular domain
# [2] = target: T2, SARS-CoV-2 S1 (aa16-685) (Wuhan) (SARS-CoV-2 Wuhan, UniProt P0DTC2 16-685); experiment: SPR, antigen on chip
# T2 construct: NRC; FLAG, 6xHis tags
# [3] = target: T3, SARS-CoV-2 S2 (aa686-1208) (Wuhan) (SARS-CoV-2 Wuhan, UniProt P0DTC2 686-1208); experiment: SPR, antigen on chip
# T3 construct: NRC; FLAG, 6xHis tags
# [4] = target: SARS-CoV-2 S1-RBD fused to human Fc (S1-RBD-Fc) (SARS-CoV-2 Wuhan; human); experiment: SPR, antigen on chip
# [5] = target: Human SARS-CoV-2_Wuhan S (SmT1) (SARS-CoV-2 (Wuhan), UniProt P0DTC2 14-1208); experiment: flow cytometry SVNA, VHH vs biotin-S binding to Vero E6 ACE2
Binder,Kd [1] [nM],koff [1] [s⁻¹],kon [1] [M⁻¹ s⁻¹],Kd [2] [nM],koff [2] [s⁻¹],kon [2] [M⁻¹ s⁻¹],binding result [3],Kd [4] [nM],koff [4] [s⁻¹],kon [4] [M⁻¹ s⁻¹],IC50 [5] [nM],IC99 [5] [nM],Imax % [5] [%],binding result [2],Kd [3] [nM],koff [3] [s⁻¹],kon [3] [M⁻¹ s⁻¹]
B1,6.73,0.0159,2.37e+06,9.63,0.0189,1.96e+06,no binding,8.61,0.0123,1.43e+06,,,,,,,
B2,,,,,,,,,,,16.1,121,50,,,,
B3,1.82,0.0012,657000,1.55,0.00115,739000,no binding,,,,,,,,,,
B4,0.384,0.000152,395000,0.536,0.000165,308000,no binding,0.736,0.000197,268000,,,,,,,
B5,,,,,,,,,,,8.9,133,51,,,,
B6,0.661,0.00141,2.14e+06,0.659,0.00138,2.1e+06,no binding,0.773,0.00141,1.83e+06,,,,,,,
B7,3.03,0.000473,156000,,,,,,,,,,,no binding,6.22,0.000629,101000
B8,,,,,,,,,,,21.3,17400,54,,,,
B9,,,,,,,,,,,15,184,88,,,,
B10,0.14,0.000335,2.39e+06,0.226,0.000493,2.18e+06,no binding,,,,,,,,,,
B11,1.34,0.000334,250000,1.09,0.000263,241000,no binding,1.53,0.000255,166000,,,,,,,
B12,,,,,,,,,,,6.1,124,53,,,,
B13,,,,,,,,,,,9.5,14.2,97,,,,
B14,0.445,0.00123,2.77e+06,0.437,0.00158,3.63e+06,no binding,,,,,,,,,,
B15,0.59,0.000571,967000,0.53,0.000555,1.05e+06,no binding,,,,,,,,,,
B16,0.232,0.000207,893000,,,,,,,,,,,no binding,0.413,0.000382,925000
B17,1.01,0.00102,1.01e+06,1.13,0.00103,905000,no binding,,,,,,,,,,
B18,2.62,0.00481,1.83e+06,2.43,0.00545,2.25e+06,no binding,,,,,,,,,,
B19,1.1,0.00117,1.06e+06,1.32,0.00114,867000,no binding,2.1,0.00118,562000,,,,,,,
B20,3.74,0.000607,162000,,,,,,,,,,,no binding,4.28,0.000627,147000
B21,,,,,,,,,,,12.1,233,44,,,,
B22,12.8,0.000446,34900,,,,,,,,,,,no binding,14.7,0.000414,28100
